Columns and labels:
[1] = biological target: Fibronectin (purified from horse serum) (horse) (UniProt Q28377); test: cell-based or functional assay
[2] = biological target: T1, Syndecan-1 overexpressed on T98G glioblastoma cells (mouse, UniProt P18828 23-311); test: GST pull-down of cell surface-bound FNIII13 and western blot, immunofluorescence
T1 construct: whole, on cells; also called T98G:S1
T1 sequence (looked up): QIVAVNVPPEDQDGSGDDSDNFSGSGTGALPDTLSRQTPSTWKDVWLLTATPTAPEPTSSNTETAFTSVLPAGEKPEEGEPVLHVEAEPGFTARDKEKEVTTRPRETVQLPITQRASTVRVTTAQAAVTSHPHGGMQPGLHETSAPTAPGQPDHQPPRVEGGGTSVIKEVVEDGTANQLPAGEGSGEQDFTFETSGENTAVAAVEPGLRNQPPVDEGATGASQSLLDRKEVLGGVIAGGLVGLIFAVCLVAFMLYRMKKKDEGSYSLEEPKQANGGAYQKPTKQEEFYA

[3] = scale: relative increase in cpm over cells plated on fibronectin

Chain of Fibronectin (purified from horse serum) (horse) (Q28377 32-2477): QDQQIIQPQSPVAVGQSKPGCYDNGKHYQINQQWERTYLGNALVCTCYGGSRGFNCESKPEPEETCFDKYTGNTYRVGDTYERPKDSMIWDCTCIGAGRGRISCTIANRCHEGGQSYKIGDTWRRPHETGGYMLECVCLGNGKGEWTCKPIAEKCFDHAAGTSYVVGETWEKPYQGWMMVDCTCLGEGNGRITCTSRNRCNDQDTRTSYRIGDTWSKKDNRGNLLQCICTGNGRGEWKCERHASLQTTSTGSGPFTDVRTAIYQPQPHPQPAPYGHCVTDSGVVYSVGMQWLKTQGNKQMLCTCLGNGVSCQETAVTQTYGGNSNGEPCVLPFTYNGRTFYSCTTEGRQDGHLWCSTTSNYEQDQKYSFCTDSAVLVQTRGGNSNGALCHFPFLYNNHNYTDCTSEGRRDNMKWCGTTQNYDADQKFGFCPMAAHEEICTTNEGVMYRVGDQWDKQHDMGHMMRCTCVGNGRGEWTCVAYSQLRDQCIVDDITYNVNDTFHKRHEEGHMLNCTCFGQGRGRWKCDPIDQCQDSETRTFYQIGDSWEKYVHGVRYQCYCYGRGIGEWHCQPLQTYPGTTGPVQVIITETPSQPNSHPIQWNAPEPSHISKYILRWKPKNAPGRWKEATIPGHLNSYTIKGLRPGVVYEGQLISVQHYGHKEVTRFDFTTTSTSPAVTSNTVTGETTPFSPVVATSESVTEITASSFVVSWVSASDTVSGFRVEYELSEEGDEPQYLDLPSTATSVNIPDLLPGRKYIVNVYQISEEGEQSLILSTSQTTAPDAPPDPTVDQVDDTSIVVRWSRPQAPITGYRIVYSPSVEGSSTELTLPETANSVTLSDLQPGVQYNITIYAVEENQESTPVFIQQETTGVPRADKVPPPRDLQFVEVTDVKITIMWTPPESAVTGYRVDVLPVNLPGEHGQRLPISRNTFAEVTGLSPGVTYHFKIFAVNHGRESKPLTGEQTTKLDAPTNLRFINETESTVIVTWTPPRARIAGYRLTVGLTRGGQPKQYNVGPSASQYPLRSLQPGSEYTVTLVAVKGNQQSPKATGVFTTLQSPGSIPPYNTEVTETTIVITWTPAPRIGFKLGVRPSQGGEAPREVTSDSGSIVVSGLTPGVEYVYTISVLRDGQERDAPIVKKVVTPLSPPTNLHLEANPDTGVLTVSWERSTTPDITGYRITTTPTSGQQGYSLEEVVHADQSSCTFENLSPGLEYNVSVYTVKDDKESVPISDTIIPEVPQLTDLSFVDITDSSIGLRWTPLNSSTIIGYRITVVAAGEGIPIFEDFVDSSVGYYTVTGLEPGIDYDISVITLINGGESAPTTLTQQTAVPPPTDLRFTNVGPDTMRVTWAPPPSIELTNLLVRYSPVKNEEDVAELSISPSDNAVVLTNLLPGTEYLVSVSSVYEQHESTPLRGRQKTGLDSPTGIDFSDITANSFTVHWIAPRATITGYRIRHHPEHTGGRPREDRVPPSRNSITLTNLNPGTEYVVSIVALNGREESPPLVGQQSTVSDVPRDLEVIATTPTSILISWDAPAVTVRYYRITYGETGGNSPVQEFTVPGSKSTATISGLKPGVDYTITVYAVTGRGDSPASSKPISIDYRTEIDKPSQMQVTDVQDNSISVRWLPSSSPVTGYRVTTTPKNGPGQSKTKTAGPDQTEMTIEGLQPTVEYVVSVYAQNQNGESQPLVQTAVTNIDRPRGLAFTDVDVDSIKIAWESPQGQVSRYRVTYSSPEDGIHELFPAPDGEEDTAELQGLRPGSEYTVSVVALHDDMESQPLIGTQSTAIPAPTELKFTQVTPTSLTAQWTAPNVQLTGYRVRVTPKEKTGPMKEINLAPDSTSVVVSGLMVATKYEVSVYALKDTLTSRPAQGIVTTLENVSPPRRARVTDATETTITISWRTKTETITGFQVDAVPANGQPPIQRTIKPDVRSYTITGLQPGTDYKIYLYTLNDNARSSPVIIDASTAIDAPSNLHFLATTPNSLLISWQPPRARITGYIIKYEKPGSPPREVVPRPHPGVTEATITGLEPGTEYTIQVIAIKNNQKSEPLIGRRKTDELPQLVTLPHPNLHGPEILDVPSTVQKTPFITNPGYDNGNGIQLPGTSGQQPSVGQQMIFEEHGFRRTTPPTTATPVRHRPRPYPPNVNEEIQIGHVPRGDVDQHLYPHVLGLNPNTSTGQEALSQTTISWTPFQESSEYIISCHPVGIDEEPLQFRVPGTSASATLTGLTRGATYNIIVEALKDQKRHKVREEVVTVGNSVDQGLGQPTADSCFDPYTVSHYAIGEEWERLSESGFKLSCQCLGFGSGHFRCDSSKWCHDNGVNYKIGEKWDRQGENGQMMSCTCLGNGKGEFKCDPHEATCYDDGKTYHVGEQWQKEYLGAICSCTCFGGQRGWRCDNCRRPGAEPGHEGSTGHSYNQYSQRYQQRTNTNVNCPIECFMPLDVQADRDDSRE

Full length chicken tenascin-C TN260 (from UniProt P10039 34-1808)
CHO-B2 cells (ITS) attached on FN/TN substratum, 20 h (% of cells attached on fibronectin) [1]: 31.5 | CHO-B2α27 cells (ITS) attached on FN/TN substratum, 20 h (% of cells attached on fibronectin) [1]: 45.1 | CHO-K1 cells (ITS) attached on FN/TN substratum, 20 h (% of cells attached on fibronectin) [1]: 37.9 | MDA MB 435 cells (insulin) attached on FN/TN substratum, 20 h (% of cells attached on fibronectin) [1]: 62.2 | MDA MB 435 cells attached on FN/TN substratum, 1 h (% of cells attached on fibronectin) [1]: 24.5 | MDA-MB435 cell number on fibronectin/tenascin-C against fibronectin, 51 h [1]: 24 % more cells | MDA-MB435 cell number on fibronectin/tenascin-C against fibronectin, 75 h [1]: 33 % more cells | T98G cells (PDGF-BB) attached on FN/TN substratum, 20 h (% of cells attached on fibronectin) [1]: 50.4 | T98G cells attached on FN/TN substratum, 1 h (% of cells attached on fibronectin) [1]: 31.9 | T98G cells partially spread on mixed fibronectin/tenascin-C substratum after 20 h [1]: 45% | DNA replication (3H-thymidine incorporation) of CHO-B2 cells on FN/TN [1, 3]: 2.6 | DNA replication (3H-thymidine incorporation) of CHO-B2α27 cells on FN/TN [1, 3]: 2.5 | DNA replication (3H-thymidine incorporation) of CHO-K1 cells on FN/TN [1, 3]: 2.3 | DNA replication (3H-thymidine incorporation) of MDA MB 435 cells on FN/TN [1, 3]: 1.8 | DNA replication (3H-thymidine incorporation) of T98G cells on FN/TN [1, 3]: 3

Syndecan-4 overexpressed on T98G glioblastoma cells (receptor)
attachment of syndecan-4 overexpressing T98G:S4 cells on fibronectin/tenascin-C substratum [1]: 64.7%

B1: Recombinant 13th fibronectin type III repeat (FNIII13) (other)
chain: NVSPPRRARVTDATETTITISWRTKTETITGFQVDAVPANGQTPIQRTIKPDVRSYTITGLQPGTDYKIYLYTLNDNARSSPVVIDAST
notes: Obtained as in Bloom et al 1999; also called GST-tagged FNIII13; not shown: GST tag and His tag (pulled down with glutathione Sepharose, detected with anti-GST and anti-His, isolated on Ni-NTA)
binding result [2]: no binding

— patent US20040259781A1 (Novartis, published 2004)
